Laboratory results: patent US10900903B2, “Protein structure analysis based on red-edge excitation shift (REES) spectroscopy” (UNIVERSITY OF BATH, priority 2016, dated 2021)

Columns and labels:
[1] = QUBES values of native mAbs; assay type: physicochemical; conditions: native mAb
Description: First, the combined excitation and emission spectrum is monitored for each mAb giving a high information content fluorescence data set (FIG. 13A). […] A simpler exponential function is fitted, CSM=CSM0+Ae^RΔλ^Ex Eq 1.
Where CSM0 is the CSM value independent of the excitation wavelength, λEx, determined by the amplitude, A, of an exponential with a curvature determined by R. Fitting with this function instead of a Gaussian or other probability distribution dramatically improves the speed of data processing due to the lower dimensionality of the model but still retains the key aspects of the previous model, namely quantification of the magnitude of the fluorescence edge-shift. The plot of the resulting parameters yields a single three-dimensional data point (FIG. 13B, inset; the QUBES value), which is a direct quantification of the extremely complex spectral fingerprint shown in FIG. 13A.
All fluorescence measurements were performed using a Perkin Elmer LS50B Luminescence Spectrometer (Perkin Elmer, Waltham, Mass., USA) connected to a circulating water bath for temperature regulation (±1° C.). […] Tryptophan emission was monitored from 325 to 500 nm. […] The centre of spectral mass (CSM) was calculated using the following equation: […]
Where fi is the measured fluorescence intensity and Δem is the emission wavelength. […]

[2] = QUBES of mAb unfolding in urea; assay type: physicochemical
Protocol: Changes in protein structure are accompanied by a change in the equilibrium of conformational states. It has been previously found with a model system, a ‘hub’ protein (described above), that by quantitating the curvature in REES data it is possible to capture information on unfolded states and ligand induced conformational change. It was explored whether the sensitive detection of differences in REES data could be useful for detecting subtle changes in protein structure in mAbs. It is tested whether the QUBES data can be used to identify unfolding and aggregation of the mAbs since these are key issues facing the development of biopharmaceuticals. […] The formation of soluble aggregates is monitored in the thermally denatured mAbs by dynamic light scattering (DLS), shown in FIG. 19.
The observed variance in the QUBES values for the denatured mAbs (FIG. 14A) may reflect the differing extent of unfolding or aggregation for each of the samples and the specific nature of the unfolded or aggregated states. […] The data therefore illustrate that these metrics ignore early stage changes to protein structure that are not captured by simple steady-state fluorescence emission measurements.
All fluorescence measurements were performed using a Perkin Elmer LS50B Luminescence Spectrometer (Perkin Elmer, Waltham, Mass., USA) connected to a circulating water bath for temperature regulation (±1° C.). […]

| Substance | QUBES value (A, R), predicted rigidity/flexibility [1] | urea concentration at which a significant increase in CSM0 is observed [2] | QUBES value shift on unfolding ([2]; urea) |
| --- | --- | --- | --- |
| Nivolumab: human therapeutic mAb | high A and small R value | – | – |
| Pertuzumab: humanised therapeutic mAb | small A and high R value | – | – |
| Tocilizumab: humanised therapeutic mAb | – | 7 M | larger R and smaller A value |
